According to paper PMC8426278:

Molecular target: GST-G1NC_(long) (GST-fused complete cytosolic domain of rat GIRK1, a.a. 1-84, 184-501) (rat) (UniProt P63251)
Test: pull-down

binding as % of wt Gβγ: 89.6%
Substance: Gβ1(I80N)γ2 (bovine Gβ1 I80N co-translated with bovine Gγ2) (from UniProt P62871 1-340; P63212 1-71) (complex)
